Experimental data published in patent US20250215089A1 (HARBOUR BIOMED SHANGHAI, published 2025).

B1: PR007276 (bispecific antibody, human IgG1, kappa)
heavy: QVQLVESGGGVVQPGMSLRLSCAASGFDFSSYGMYWVRQAPGKGQEWVASIRYTGTEKHYADSVKGRFTISRDNSKNTLYLEMNSLRVEDTAVYYCAKNRALFGVIPDDSDIRGQGTMVTVSSGGGGSQVQLVQSGAEVKKPGASVKVSCKASGYTFAGYYMYWVRQAPGQGLEWMGWINPDSGAPTYAQKFQGRVTMTRDTSISTAYMELSRLRSDDTAVYYCAREKIYYGSGNYYPSFDYWGQGTLVTVSSASTKGPSVFPLAPSSKSTSGGTAALGCLVKDYFPEPVTVSWNSGALTSGVHTFPAVLQSSGLYSLSSVVTVPSSSLGTQTYICNVNHKPSNTKVDKKVEPKSCDKTHTCPPCPAPEAAGAPSVFLFPPKPKDTLMISRTPEVTCVVVDVSHEDPEVKFNWYVDGVEVHNAKTKPREEQYNSTYRVVSVLTVLHQDWLNGKEYKCKVSNKALPAPIEKTISKAKGQPREPQVYTLPPSREEMTKNQVSLTCLVKGFYPSDIAVEWESNGQPENNYKTTPPVLDSDGSFFLYSKLTVDKSRWQQGNVFSCSVMHEALHNHYTQKSLSLSPGK
light: DIQLTQSPSFLSASVGDRVTITCRASQGISSYLAWYQQKPGKAPKLLIYAASTLQSGVPSRFSGSGSGTEFTLTISSLQPEDFATYYCQQLASYPWTFGQGTKVEIKRTVAAPSVFIFPPSDEQLKSGTASVVCLLNNFYPREAKVQWKVDNALQSGNSQESVTEQDSKDSTYSLSSTLTLSKADYEKHKVYACEVTHQGLSSPVTKSFNRGEC
notes: VH of PR006248 (PD-L1) - GS_5 - heavy chain of CD40 IgG PR006495; human IgG1 L234A/L235A/G237A; also called PD-L1×CD40
B2: PR007070 (bispecific antibody, human IgG1, kappa)
heavy: QVQLVESGGGVVQPGMSLRLSCAASGFTFSSYGMYWVRQAPGKGQEWVASIRYTGTEKHYADSVKGRFTISRDNSKNTLYLEMNSLRVEDTAVYYCAKNRALFGVIPDDSDIRGQGTMVTVSSGGGGSQVQLVQSGAEVKKPGASVKVSCKASGYTFAGYYMYWVRQAPGQGLEWMGWINPDSGAPTYAQKFQGRVTMTRDTSISTAYMELSRLRSDDTAVYYCAREKIYYGSGNYYPSFDYWGQGTLVTVSSASTKGPSVFPLAPSSKSTSGGTAALGCLVKDYFPEPVTVSWNSGALTSGVHTFPAVLQSSGLYSLSSVVTVPSSSLGTQTYICNVNHKPSNTKVDKKVEPKSCDKTHTCPPCPAPEAAGAPSVFLFPPKPKDTLMISRTPEVTCVVVDVSHEDPEVKFNWYVDGVEVHNAKTKPREEQYNSTYRVVSVLTVLHQDWLNGKEYKCKVSNKALPAPIEKTISKAKGQPREPQVYTLPPSREEMTKNQVSLTCLVKGFYPSDIAVEWESNGQPENNYKTTPPVLDSDGSFFLYSKLTVDKSRWQQGNVFSCSVMHEALHNHYTQKSLSLSPGK
light: DIQLTQSPSFLSASVGDRVTITCRASQGISSYLAWYQQKPGKAPKLLIYAASTLQSGVPSRFSGSGSGTEFTLTISSLQPEDFATYYCQQLASYPWTFGQGTKVEIKRTVAAPSVFIFPPSDEQLKSGTASVVCLLNNFYPREAKVQWKVDNALQSGNSQESVTEQDSKDSTYSLSSTLTLSKADYEKHKVYACEVTHQGLSSPVTKSFNRGEC
notes: VH of PR005878 (PD-L1) - GS_5 - heavy chain of CD40 IgG PR006495; human IgG1 L234A/L235A/G237A; also called PD-L1×CD40
B3: PR006919 (bispecific antibody, human IgG1, kappa)
heavy: QVQLVESGGGVVQPGMSLRLSCAASGFDFSSYGMYWVRQAPGKGQEWVASIRYTGTEKHYADSVKGRFTISRDNSKNTLYLEMNSLRVEDTAVYYCAKNRAIFGVIPDDSDIRGQGTMVTVSSGGGGSQVQLVQSGAEVKKPGASVKVSCKASGYTFAGYYMYWVRQAPGQGLEWMGWINPDSGAPTYAQKFQGRVTMTRDTSISTAYMELSRLRSDDTAVYYCAREKIYYGSGNYYPSFDYWGQGTLVTVSSASTKGPSVFPLAPSSKSTSGGTAALGCLVKDYFPEPVTVSWNSGALTSGVHTFPAVLQSSGLYSLSSVVTVPSSSLGTQTYICNVNHKPSNTKVDKKVEPKSCDKTHTCPPCPAPEAAGAPSVFLFPPKPKDTLMISRTPEVTCVVVDVSHEDPEVKFNWYVDGVEVHNAKTKPREEQYNSTYRVVSVLTVLHQDWLNGKEYKCKVSNKALPAPIEKTISKAKGQPREPQVYTLPPSREEMTKNQVSLTCLVKGFYPSDIAVEWESNGQPENNYKTTPPVLDSDGSFFLYSKLTVDKSRWQQGNVFSCSVMHEALHNHYTQKSLSLSPGK
light: DIQLTQSPSFLSASVGDRVTITCRASQGISSYLAWYQQKPGKAPKLLIYAASTLQSGVPSRFSGSGSGTEFTLTISSLQPEDFATYYCQQLFSYPWTFGQGTKVEIKRTVAAPSVFIFPPSDEQLKSGTASVVCLLNNFYPREAKVQWKVDNALQSGNSQESVTEQDSKDSTYSLSSTLTLSKADYEKHKVYACEVTHQGLSSPVTKSFNRGEC
notes: VH of PR006246 (PD-L1) - GS_5 - heavy chain of CD40 IgG PR006496; human IgG1 L234A/L235A/G237A; also called PD-L1×CD40

Experiments:
human CD40 [1] = biological target: T1, human CD40 (human, UniProt P25942 21-277); test: cell-based or functional assay
T1 sequence (P25942 21-277): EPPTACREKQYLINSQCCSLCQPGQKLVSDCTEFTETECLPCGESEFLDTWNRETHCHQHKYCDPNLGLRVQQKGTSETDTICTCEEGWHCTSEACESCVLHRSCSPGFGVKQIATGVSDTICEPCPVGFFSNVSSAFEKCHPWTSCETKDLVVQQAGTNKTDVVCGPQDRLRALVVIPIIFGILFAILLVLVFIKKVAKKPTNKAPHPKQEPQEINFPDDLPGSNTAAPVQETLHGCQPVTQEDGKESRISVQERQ

human PD-L1 [2] = biological target: T2, human PD-L1 (human, UniProt Q9NZQ7 19-290); test: cell-based or functional assay
T2 sequence (Q9NZQ7 19-290): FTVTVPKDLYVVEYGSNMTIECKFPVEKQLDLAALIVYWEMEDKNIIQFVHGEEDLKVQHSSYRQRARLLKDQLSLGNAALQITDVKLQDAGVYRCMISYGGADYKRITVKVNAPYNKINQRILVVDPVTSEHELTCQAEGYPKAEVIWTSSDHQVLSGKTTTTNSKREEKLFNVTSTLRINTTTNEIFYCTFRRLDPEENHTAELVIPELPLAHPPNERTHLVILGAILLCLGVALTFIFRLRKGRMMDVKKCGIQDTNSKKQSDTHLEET

human PD-L1 [3] = biological target: T2, human PD-L1; test: FACS, CHO-K1/hPD-L1 cells
Description: (§1) Specifically, the cells expressing PD-L1 were digested and resuspended in PBS buffer containing 2% BSA. The cells were adjusted to a cell density of 1×10⁶ cells/mL, respectively. The cells were seeded in a 96-well V-bottom plate (Corning, #3894) at 100 μL/well, and the antibody to be tested at 2×final concentration with 4-fold concentration gradient dilution was then added at 100 μL/well. The cells were incubated at 4° C. for 2 hours in the dark. After the incubation, the cells were rinsed twice by adding pre-chilled PBS containing 2% BSA at 100 μL/well, and centrifuged at 500 g at 4° C. for 5 minutes, and the supernatant was discarded. […] The cells were washed twice by adding pre-chilled PBS containing 2% BSA at 100 µL/well, and centrifuged at 500 g at 4° C. for 5 minutes, and the supernatant was discarded. Finally, the cells were resuspended in pre-chilled PBS buffer containing 2% BSA at 200 μL/well. The fluorescence signal values were read using a BD FACS CANTOII flow cytometer or ACEA NovoCyte flow cytometer, and the data were processed and analyzed using FlowJo v10 software (FlowJo, LLC).

cynomolgus monkey PD-L1 = biological target: T3, cynomolgus monkey PD-L1 (cynomolgus monkey); test: FACS, CHO-K1/cyPD-L1 cells
T3 construct: whole, on cells; also called cyPD-L1
Description: as §1

human CD40 [4] = biological target: T1, human CD40; test: FACS, Raji cells
Description: (§2) The cells were incubated at 4° C. for 1 hours in the dark. After the incubation, the cells were rinsed twice by adding pre-chilled PBS at 100 μL/well, and centrifuged at 500 g at 4° C. for 5 minutes, and the supernatant was discarded. Then, a fluorescent secondary antibody (goat anti-human IgG (H+L) secondary antibody, Alexa Fluor® 488 conjugate, Invitrogen, #A11013, 1:1000 dilution) was added at 100 μL/well, and the cells were incubated at 4° C. for 30 minutes in the dark. The cells were washed twice with pre-chilled PBS at 200 μL/well, and centrifuged at 500 g at 4° C. for 5 minutes, and the supernatant was discarded. Finally, the cells were resuspended in pre-chilled PBS at 200 μL/well. The fluorescence signal values were read using a BD FACS CANTOII flow cytometer or ACEA NovoCyte flow cytometer, and the data were processed and analyzed using FlowJo v10 software (FlowJo, LLC).

cynomolgus monkey CD40 = biological target: T4, cynomolgus monkey CD40 (cynomolgus monkey); test: FACS, CHO-K1/cyCD40 cells
T4 construct: whole, on cells; also called cyCD40
Description: as §2

human CD40 [5] = biological target: T1, human CD40; test: FACS, CHO-K1/hCD40 cells
Description: as §2

human PD-L1 [6] = biological target: T2, human PD-L1; test: FACS, NCI-H226 cells
Description: as §1

Row | Binder | EC50, HEK293-hCD40-NFκB reporter, + CHO-K1 (human CD40 [1]) [nM] | EC50, HEK293-hCD40-NFκB reporter, + CHO-K1/hPD-L1 (human CD40 [1]) [nM] | Maximum (RLU), HEK293-hCD40-NFκB reporter, + CHO-K1 (human CD40 [1]) [RLU] | Maximum (RLU), HEK293-hCD40-NFκB reporter, + CHO-K1/hPD-L1 (human CD40 [1]) [RLU] | EC50, Jurkat-NFAT-hPD1 reporter (human PD-L1 [2]) [nM] | Maximum (RLU), Jurkat-NFAT-hPD1 reporter (human PD-L1 [2]) [RLU] | EC50 (human PD-L1 [3]) [nM] | Maximum MFI (human PD-L1 [3]) [MFI] | EC50 (cynomolgus monkey PD-L1) [nM] | Maximum MFI (cynomolgus monkey PD-L1) [MFI] | EC50 (human CD40 [4]) [nM] | Maximum MFI (human CD40 [4]) [MFI] | EC50 (cynomolgus monkey CD40) [nM] | Maximum MFI (cynomolgus monkey CD40) [MFI] | EC50 (human CD40 [5]) [nM] | Maximum MFI (human CD40 [5]) [MFI] | EC50 (human PD-L1 [6]) [nM] | Maximum MFI (human PD-L1 [6]) [MFI]
1 | B1 | 0.22 | 0.08 | 239000 | 379000 | 0.273 | 4060 | 1.18 | 19700 | 0.656 | 4570 | 1.45 | 7570 | 2.62 | 57000 | 2.35 | 14300 | 0.569 | 927
2 | B2 | 0.136 | 0.0138 | 26900 | 31700 | 0.175 | 2830 | 1.15 | 20500 | 0.779 | 4870 | 1.36 | 6670 | 15.6 | 93200 | 2.67 | 15400 | 0.313 | 862
3 | B3 | 0.144 | 0.0106 | 24500 | 31400 | 0.359 | 4920 | 0.96 | 19600 | 0.622 | 4540 | 1.24 | 7360 | 3.37 | 76200 | 2.53 | 18900 | 0.389 | 870
